Target: T1, Histidine-tagged human CD40 protein (hCD40-His) (human, UniProt P25942 21-193)
T1 construct: not shown: histidine tag
Test: SPR, Biacore T200; antibody on Protein A chip, hCD40-His injected; 1:1 fit
Description: The binding affinity of the anti-hCD40 antibodies were measured using surface plasmon resonance (SPR) using Biacore (Biacore, INC, Piscataway N.J.) T200 biosensor equipped with pre-immobilized Protein A sensor chips.
Anti-hCD40 antibodies were collected by transfecting CHO-S cells and then purified. The antibodies (1 μg/mL) were injected into Biacore T200 biosensor at 10 μL/min for about 24-33 seconds to achieve to a desired protein density (about 44-57 response units (RU)). […] Dissociation was monitored for 300 seconds. The chip was regenerated after the last injection of each titration with Glycine (pH 2.0, 30 μL/min for 12 seconds).

T1 sequence (P25942 21-193 limits assumed): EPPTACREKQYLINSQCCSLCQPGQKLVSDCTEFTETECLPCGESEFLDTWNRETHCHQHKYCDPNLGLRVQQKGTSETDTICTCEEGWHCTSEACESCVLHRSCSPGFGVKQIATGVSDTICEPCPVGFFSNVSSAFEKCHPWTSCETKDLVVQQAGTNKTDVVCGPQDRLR

Binder | Kd [nM] | koff [s⁻¹] | kon [M⁻¹ s⁻¹]
7F10-H2K3-IgG4 (antibody, V domains shown, Humanized) VH: EVQLVESGGGLVQPGGSLRLSCATSGFTFSDYYMYWVRQAPGKRLEWVAYISYGGDSTFYPDTVRGRFTISRDNAKNSLYLQMSSLKAEDTAVYYCARPAPSAHSYYLDYWGQGTLLTVSS VL: DIQMTQSTSSLSASVGDRVTITCRASQDISNYLNWYQQKPGGAVKLLIYYTSRLHSGLPSRFSGSGSGTDYTLTISSLQQEDIATYYCQQGKTLPFTFASGTKLEIK | 182 | 0.0313 | 172000
4H6-H2K2-IgG4 (antibody, V domains shown, Humanized) VH: EVQLQESGPGLVKPSQTLSLTCTVSGDSVSSGYWNWIRKHPGKKLEWIGFISYSGSTYYTPSLKSRVTISRDTSKNQFSLKLSSVTAADTAVYYCARFRRYDDGVDYWGQGTLVTVSS VL: DIQMTQSPSAMSASVGDRVTITCRASHEISGYLSWIQQKPGGTIKRLINAASTLASGVPSRFSGSRSGTEFTLTISSLQPEDFADYYCLQYSSYPWTFGGGTKLEIK | 138 | 0.057 | 414000
4H6-H1K3-IgG4 (antibody, V domains shown, Humanized) VH: QVQLQESGPGLVKPSQTLSLTCTVSGDSVSSGYWNWIRKHPGKKLEWIGFISYSGSTYYTPSLKSRVTISRDTSKNQFSLKLSSVTAADTAVYYCARFRRYDDGVDYWGQGTLVTVSS VL: DIQMTQSPSAMSASVGDRVTITCRASHEISGYLSWIQQKPGGTIKRLINAASTLASGVPSRFSGSRSGTEYTLTISSLQPEDFADYYCLQYSSYPWTFGGGTKLEIK | 229 | 0.0554 | 242000
4H6-H1K4-IgG4 (antibody, V domains shown, Humanized) VH: QVQLQESGPGLVKPSQTLSLTCTVSGDSVSSGYWNWIRKHPGKKLEWIGFISYSGSTYYTPSLKSRVTISRDTSKNQFSLKLSSVTAADTAVYYCARFRRYDDGVDYWGQGTLVTVSS VL: DIQMTQSPSAMSASVGDRVTLTCRASHEISGYLSWIQQKPGGTIKRLINAASTLASGVPSRFSGSRSGTEYTLTISSLQPEDFADYYCLQYSSYPWTFGGGTKLEIK | 465 | 0.0695 | 149000
4H6-H1K2-IgG4 (antibody, V domains shown, Humanized) VH: QVQLQESGPGLVKPSQTLSLTCTVSGDSVSSGYWNWIRKHPGKKLEWIGFISYSGSTYYTPSLKSRVTISRDTSKNQFSLKLSSVTAADTAVYYCARFRRYDDGVDYWGQGTLVTVSS VL: DIQMTQSPSAMSASVGDRVTITCRASHEISGYLSWIQQKPGGTIKRLINAASTLASGVPSRFSGSRSGTEFTLTISSLQPEDFADYYCLQYSSYPWTFGGGTKLEIK | 164 | 0.0632 | 386000
4H6-H2K3-IgG4 (antibody, V domains shown, Humanized) VH: EVQLQESGPGLVKPSQTLSLTCTVSGDSVSSGYWNWIRKHPGKKLEWIGFISYSGSTYYTPSLKSRVTISRDTSKNQFSLKLSSVTAADTAVYYCARFRRYDDGVDYWGQGTLVTVSS VL: DIQMTQSPSAMSASVGDRVTITCRASHEISGYLSWIQQKPGGTIKRLINAASTLASGVPSRFSGSRSGTEYTLTISSLQPEDFADYYCLQYSSYPWTFGGGTKLEIK | 253 | 0.0659 | 260000
4H6-H1K1-IgG4 (antibody, V domains shown, Humanized) VH: QVQLQESGPGLVKPSQTLSLTCTVSGDSVSSGYWNWIRKHPGKKLEWIGFISYSGSTYYTPSLKSRVTISRDTSKNQFSLKLSSVTAADTAVYYCARFRRYDDGVDYWGQGTLVTVSS VL: DIQMTQSPSAMSASVGDRVTITCRASHEISGYLSWFQQKPGGVIKRLINAASTLASGVPSRFSGSRSGTEFTLTISSLQPEDFATYYCLQYSSYPWTFGGGTKLEIK | 7720 | 0.167 | 21700
4H6-H2K1-IgG4 (antibody, V domains shown, Humanized) VH: EVQLQESGPGLVKPSQTLSLTCTVSGDSVSSGYWNWIRKHPGKKLEWIGFISYSGSTYYTPSLKSRVTISRDTSKNQFSLKLSSVTAADTAVYYCARFRRYDDGVDYWGQGTLVTVSS VL: DIQMTQSPSAMSASVGDRVTITCRASHEISGYLSWFQQKPGGVIKRLINAASTLASGVPSRFSGSRSGTEFTLTISSLQPEDFATYYCLQYSSYPWTFGGGTKLEIK | 447 | 0.227 | 507000

The next lines start with the values.

Kd [nM] | koff [s⁻¹] | kon [M⁻¹ s⁻¹] | Binder
194 | 0.0292 | 150000 | 7F10-mHvKv-IgG1-N297A (antibody, V domains shown, Chimeric; human IgG1 constant regions with N297A mutation (EU numbering) in the Fc region) VH: EVKLVESGGGLVQPGGSLKLSCATSGFTFSDYYMYWVRQTPEKRLEWVAYISYGGDSTFYPDTVRGRFTISRDNAKNALYLQMSRLKSEDTAVYYCARPAPSAHSYYLDYWGQGTTLTVSS VL: DIQMTQTTSSLSASLGDRVTISCRASQDISNYLNWYQQKPDGTVKLLIYYTSRLHSGLPSRFSGSGSGTDYSLTISNLEQEDIATYYCQQGKTLPFTFASGTKLEIK
291 | 0.0514 | 177000 | 7F10-H1K1-IgG4 (antibody, V domains shown, Humanized) VH: EVQLVESGGGLVQPGGSLRLSCATSGFTFSDYYMYWVRQAPGKRLEWVAYISYGGDSTFYPDTVRGRFTISRDNAKNSLYLQMNSLRAEDTAVYYCARPAPSAHSYYLDYWGQGTLLTVSS VL: DIQMTQSPSSLSASVGDRVTITCRASQDISNYLNWYQQKPGGAVKLLIYYTSRLHSGLPSRFSGSGSGTDFTFTISSLQPEDIATYYCQQGKTLPFTFASGTKLEIK
535 | 0.0391 | 73100 | 7F10-H1K3-IgG4 (antibody, V domains shown, Humanized) VH: EVQLVESGGGLVQPGGSLRLSCATSGFTFSDYYMYWVRQAPGKRLEWVAYISYGGDSTFYPDTVRGRFTISRDNAKNSLYLQMNSLRAEDTAVYYCARPAPSAHSYYLDYWGQGTLLTVSS VL: DIQMTQSTSSLSASVGDRVTITCRASQDISNYLNWYQQKPGGAVKLLIYYTSRLHSGLPSRFSGSGSGTDYTLTISSLQQEDIATYYCQQGKTLPFTFASGTKLEIK
594 | 0.0491 | 82800 | 7F10-H1K2-IgG4 (antibody, V domains shown, Humanized) VH: EVQLVESGGGLVQPGGSLRLSCATSGFTFSDYYMYWVRQAPGKRLEWVAYISYGGDSTFYPDTVRGRFTISRDNAKNSLYLQMNSLRAEDTAVYYCARPAPSAHSYYLDYWGQGTLLTVSS VL: DIQMTQSPSSLSASVGDRVTITCRASQDISNYLNWYQQKPGGAVKLLIYYTSRLHSGLPSRFSGSGSGTDYTFTISSLQPEDIATYYCQQGKTLPFTFASGTKLEIK
91.6 | 0.0286 | 312000 | 4H6-H3K3-IgG4 (antibody, V domains shown, Humanized) VH: EVQLQESGPGLVKPSQTLSLTCTVSGDSVSSGYWNWIRKHPGKKLEYMGFISYSGSTYYTPSLKSRITISRDTSKNQFSLKLSSVTAADTAVYFCARFRRYDDGVDYWGQGTLVTVSS VL: DIQMTQSPSAMSASVGDRVTITCRASHEISGYLSWIQQKPGGTIKRLINAASTLASGVPSRFSGSRSGTEYTLTISSLQPEDFADYYCLQYSSYPWTFGGGTKLEIK
413 | 0.0342 | 82700 | 4H6-H3K1-IgG4 (antibody, V domains shown, Humanized) VH: EVQLQESGPGLVKPSQTLSLTCTVSGDSVSSGYWNWIRKHPGKKLEYMGFISYSGSTYYTPSLKSRITISRDTSKNQFSLKLSSVTAADTAVYFCARFRRYDDGVDYWGQGTLVTVSS VL: DIQMTQSPSAMSASVGDRVTITCRASHEISGYLSWFQQKPGGVIKRLINAASTLASGVPSRFSGSRSGTEFTLTISSLQPEDFATYYCLQYSSYPWTFGGGTKLEIK
78.8 | 0.0257 | 327000 | 4H6-H4K3-IgG4 (antibody, V domains shown, Humanized) VH: EVQLQESGPGLVKPSQTLSLTCTVSGDSVSSGYWNWIRKFPGKKLEYMGFISYSGSTYYTPSLKSRITISRDTSKNQFSLKLSSVTAADTAVYFCARFRRYDDGVDYWGQGTLVTVSS VL: DIQMTQSPSAMSASVGDRVTITCRASHEISGYLSWIQQKPGGTIKRLINAASTLASGVPSRFSGSRSGTEYTLTISSLQPEDFADYYCLQYSSYPWTFGGGTKLEIK
94.8 | 0.0282 | 298000 | 4H6-H3K4-IgG4 (antibody, V domains shown, Humanized) VH: EVQLQESGPGLVKPSQTLSLTCTVSGDSVSSGYWNWIRKHPGKKLEYMGFISYSGSTYYTPSLKSRITISRDTSKNQFSLKLSSVTAADTAVYFCARFRRYDDGVDYWGQGTLVTVSS VL: DIQMTQSPSAMSASVGDRVTLTCRASHEISGYLSWIQQKPGGTIKRLINAASTLASGVPSRFSGSRSGTEYTLTISSLQPEDFADYYCLQYSSYPWTFGGGTKLEIK
88.9 | 0.0278 | 312000 | 4H6-H4K4-IgG4 (antibody, V domains shown, Humanized) VH: EVQLQESGPGLVKPSQTLSLTCTVSGDSVSSGYWNWIRKFPGKKLEYMGFISYSGSTYYTPSLKSRITISRDTSKNQFSLKLSSVTAADTAVYFCARFRRYDDGVDYWGQGTLVTVSS VL: DIQMTQSPSAMSASVGDRVTLTCRASHEISGYLSWIQQKPGGTIKRLINAASTLASGVPSRFSGSRSGTEYTLTISSLQPEDFADYYCLQYSSYPWTFGGGTKLEIK
378 | 0.0742 | 196000 | 4H6-H2K4-IgG4 (antibody, V domains shown, Humanized) VH: EVQLQESGPGLVKPSQTLSLTCTVSGDSVSSGYWNWIRKHPGKKLEWIGFISYSGSTYYTPSLKSRVTISRDTSKNQFSLKLSSVTAADTAVYYCARFRRYDDGVDYWGQGTLVTVSS VL: DIQMTQSPSAMSASVGDRVTLTCRASHEISGYLSWIQQKPGGTIKRLINAASTLASGVPSRFSGSRSGTEYTLTISSLQPEDFADYYCLQYSSYPWTFGGGTKLEIK
145 | 0.0269 | 185000 | 4H6-H4K1-IgG4 (antibody, V domains shown, Humanized) VH: EVQLQESGPGLVKPSQTLSLTCTVSGDSVSSGYWNWIRKFPGKKLEYMGFISYSGSTYYTPSLKSRITISRDTSKNQFSLKLSSVTAADTAVYFCARFRRYDDGVDYWGQGTLVTVSS VL: DIQMTQSPSAMSASVGDRVTITCRASHEISGYLSWFQQKPGGVIKRLINAASTLASGVPSRFSGSRSGTEFTLTISSLQPEDFATYYCLQYSSYPWTFGGGTKLEIK
